In patent US20210269521A1 (L AND L BIOPHARMA, published 2021):

Legend:
[1] = biological target: T1, human PD-1 extracellular domain protein expressed in Example 1 (tag not stated) (human, UniProt Q15116 25-170); assay: ELISA; pH 6.0, 37°C 7 days
T1 construct: extracellular domain; also called PD-1 protein; not shown: human IgG1 Fc or his tag

[2] = biological target: T2, human TIM-3 extracellular domain-human IgG1 Fc fusion protein (human, UniProt Q8TDQ0 22-199); assay: ELISA; pH 6.0, 37°C 7 days
T2 construct: Made in house or bought (ACROBiosystems TM3-H5258); also called TIM-3-hFc; not shown: human IgG1 Fc

[3] = biological target: T1, human PD-1 extracellular domain protein …; assay: ELISA; pH 5.5, 40°C 0 day (-80°C)
[4] = biological target: T2, human TIM-3 extracellular domain-human …; assay: ELISA; pH 5.5, 40°C 0 day (-80°C)
[5] = biological target: T1, human PD-1 extracellular domain protein …; assay: ELISA; 28.5 mg/mL, His buffer pH 5.5, 37°C 0 day (-80°C)
[6] = biological target: T2, human TIM-3 extracellular domain-human …; assay: as above
[7] = biological target: T1, human PD-1 extracellular domain protein …; assay: ELISA; pH 5.5, 40°C 10 days, against 0 day
[8] = biological target: T2, human TIM-3 extracellular domain-human …; assay: ELISA; pH 5.5, 40°C 10 days, against 0 day
[9] = biological target: T1, human PD-1 extracellular domain protein …; assay: blocking ELISA, PD-1 coated, competitor biotin-labeled PD-L1
[10] = biological target: T2, human TIM-3 extracellular domain-human …; assay: ELISA
Experimental: Goat-anti-hFc (Jackson, 109-005-008) was diluted to a concentration of 1 μg/ml with PBS buffer (pH 7.4) and added to a 96-well microplate (Corning, CLS3590-100EA) at a volume of 50 μl/well, then incubated in an incubator at 37° C. for 2 hours (Or the antigen TIM-3 was directly used to coat the microplate with a concentration of 0.5 μg/ml, and then the antibody to be tested was directly added). After discarding the liquid, a blocking solution of 5% skimmed milk (skimmed milk powder purchased from Bright) diluted with PBS was added at 200 μl per well, and the microplate was incubated for 2.5 hours at 37° C. or overnight (16-18 hours) at 4° C. for blocking. The blocking solution was discarded, and the microplate was washed 5 times with PBST buffer (PBS with pH 7.4 containing 0.05% tween-20), then 50 μl/well of 0.5 μg/ml TIM-3-hFc (Example 1) was added and incubated for 2 hours in a 37° C. incubator. After incubation, the microplate was washed 6 times with PB ST. 50 μl/well of supernatant (containing testing antibody) or different concentrations of the antibody to be tested was added, and the microplate was incubated at 37° C. for 2 hours and washed 5 times with PBST. 50 μl/well of 1:2500 diluted HRP-labeled secondary antibody (Jackson Immuno Research, 115-035-003) was added to the microplate, incubating at 37° C. for 1 hour. After washing the microplate 5 times with PBST, 50 μl/well TMB chromogenic substrate (KPL, 52-00-03) was added to the microplate, followed by incubating at room temperature for 10-15 min.

Human PD-1-his = biological target: T3, Human PD-1-his (human, UniProt Q15116 25-170); assay: SPR Biacore, antibody captured on Protein A, antigen in flow
T3 construct: extracellular domain; not shown: his tag
Experimental: (§1) First, Protein A (Thermo Pierce, Cat #21181) was conjugated to the biosensing chip CMS (Cat. #BR-1005-30, GE), and the chip was activated with the newly prepared 50 mM NHS (N-hydroxysuccinimide) and 200 mM EDC [1-ethyl-3-(3-dimethylaminopropyl) carbodiimide hydrochloride], then 10 μg/ml Protein A prepared with 10 mM NaAC (pH 4.0) was injected. […] The flow rate was 30 μl/min, the binding time was 180 seconds and the dissociation time is 300 seconds. Subsequently, the chip was washed for 30s with 10 mM Glycine-HCl (pH 1.5) at 30 μl/min. The data were fitted with a 1:1 Langmuir model using the software of Biacore T200 evaluation version 3.0 (GE), and the affinity value KD was obtained.

[11] = biological target: T4, human TIM-3 extracellular domain-his tag protein (human, UniProt Q8TDQ0 22-199); assay: as above
T4 construct: Made in house or bought (ACROBiosystems TM3-H5229); also called TIM-3-his; Human Tim3-his; not shown: his tag
Experimental: as §1

[12] = biological target: T1, human PD-1 extracellular domain protein …; assay: ELISA; 37°C 0 day, against 0 day
[13] = biological target: T2, human TIM-3 extracellular domain-human …; assay: ELISA; 37°C 0 day, against 0 day
[14] = biological target: T1, human PD-1 extracellular domain protein …; assay: ELISA; 15 mg/mL, His buffer pH 5.5, 37°C 0 day (-80°C)
[15] = biological target: T2, human TIM-3 extracellular domain-human …; assay: as above
[16] = biological target: T1, human PD-1 extracellular domain protein …; assay: ELISA; pH 5.5, 37°C 10 days

EC50 [1]: 0.116 nM
EC50 [2]: 0.136 nM
EC50 [3]: 0.181 nM
EC50 [4]: 0.36 nM
EC50 [5]: 0.181 nM
EC50 [6]: 0.36 nM
Fold change of EC50 [7]: 1.19 ratio
Fold change of EC50 [8]: 1.04 ratio
IC50 [9]: 1.66 nM
EC50 [10]: 0.648 nM
Kd (Human PD-1-his): 6.63 nM
koff (Human PD-1-his): 0.00285 s⁻¹
kon (Human PD-1-his): 430000 M⁻¹ s⁻¹
Kd [11]: 5.05 nM
koff [11]: 0.00393 s⁻¹
kon [11]: 777000 M⁻¹ s⁻¹
Fold change of EC50 [12]: 1 ratio
Fold change of EC50 [13]: 1 ratio
EC50 [14]: 0.144 nM
EC50 [15]: 0.148 nM
EC50 [16]: 0.199 nM
B1: bispecific antibody LB141 (bispecific antibody, human IgG4 S228P, kappa)
light: EIVLTQSPATLSLSPGERATLSCRASKGVSTSGYSYLHWYQQKPGQAPRLLIYLASYLESGVPARFSGSGSGTDFTLTISSLEPEDFAVYYCQHSRDLPLTFGGGTKVEIKRTVAAPSVFIFPPSDEQLKSGTASVVCLLNNFYPREAKVQWKVDNALQSGNSQESVTEQDSKDSTYSLSSTLTLSKADYEKHKVYACEVTHQGLSSPVTKSFNRGEC
heavy: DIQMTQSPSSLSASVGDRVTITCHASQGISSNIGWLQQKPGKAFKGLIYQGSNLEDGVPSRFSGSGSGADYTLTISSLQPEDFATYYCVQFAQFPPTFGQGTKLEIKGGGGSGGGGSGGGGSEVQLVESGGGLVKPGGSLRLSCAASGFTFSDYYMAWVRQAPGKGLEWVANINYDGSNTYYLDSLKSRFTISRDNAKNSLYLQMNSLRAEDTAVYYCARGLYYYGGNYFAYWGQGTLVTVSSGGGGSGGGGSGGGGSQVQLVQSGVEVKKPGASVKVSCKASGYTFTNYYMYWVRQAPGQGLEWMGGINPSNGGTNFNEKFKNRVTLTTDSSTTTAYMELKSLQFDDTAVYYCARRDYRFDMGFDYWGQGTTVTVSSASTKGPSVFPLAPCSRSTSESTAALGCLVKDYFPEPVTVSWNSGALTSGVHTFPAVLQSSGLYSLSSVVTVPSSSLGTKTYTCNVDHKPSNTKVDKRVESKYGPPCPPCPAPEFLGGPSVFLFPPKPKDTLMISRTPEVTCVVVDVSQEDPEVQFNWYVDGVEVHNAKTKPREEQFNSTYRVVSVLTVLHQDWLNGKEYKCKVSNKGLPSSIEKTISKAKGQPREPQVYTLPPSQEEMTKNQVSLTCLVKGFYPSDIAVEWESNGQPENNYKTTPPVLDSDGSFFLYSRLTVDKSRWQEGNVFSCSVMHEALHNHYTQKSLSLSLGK
notes: ab6VL-(G4S)3-ab6VH-(G4S)3-PemVH-hIgG4 with PemVL-κ
